Reference: PMC11154708

Target: Rad51 (S. cerevisiae) (UniProt P25454)
Assay: co-IP; Rad51 immunoprecipitated with anti-Rad51 antibody from yeast lysates (Rad51 overexpressed from a plasmid), IP fraction blotted for Hsp82 and Aha1; strains WT, hda1Δ, aha1Δ and hsp82 mutant strains (K27Q, K27R, K274Q, K274R, K178R); rad51Δ as negative control; blots quantified with Image J

Chain of UniProt P25454 (P25454 whole entry): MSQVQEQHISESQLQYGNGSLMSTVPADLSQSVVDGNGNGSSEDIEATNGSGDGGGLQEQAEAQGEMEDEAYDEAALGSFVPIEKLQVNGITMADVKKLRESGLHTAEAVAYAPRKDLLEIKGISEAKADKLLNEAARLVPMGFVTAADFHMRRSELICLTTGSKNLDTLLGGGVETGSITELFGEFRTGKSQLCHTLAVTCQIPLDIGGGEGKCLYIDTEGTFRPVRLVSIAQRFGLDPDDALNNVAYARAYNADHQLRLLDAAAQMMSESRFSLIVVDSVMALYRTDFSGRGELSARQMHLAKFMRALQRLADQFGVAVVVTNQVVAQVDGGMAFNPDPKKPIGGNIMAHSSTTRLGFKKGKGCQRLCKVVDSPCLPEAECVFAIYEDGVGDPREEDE

fold reduction of association in the aha1Δ strain against the WT strain: 2 fold
fold reduction of association in the hda1Δ strain against the WT strain: 5 fold
Substance: Hsp82 (WT) (from UniProt P02829 1-709) (natural protein)
